{"source": "paper PMC10433817", "system": "ThserRS (seryl-tRNA synthetase, GME12055) (Trametes hirsuta AH28-2)", "assay": "fluorescence polarization", "conditions": "5 mM Mg2+; 25 mM HEPES pH 6.5, 5 mM MgCl2, 150 mM KCl, 1 mM DTT, 5% glycerol, 16 C, 30 min; probe 0.5 uM (EMSA) or 40 nM (FP); further truncations of the 32-bp probe gave …", "data": [{"substance": "lacA promoter 32-bp minimal probe (-462 to -431)", "values": [{"measurement": "Kd", "value": 920, "unit": "nM"}]}]}
